Results reported in PMC8804933 (The EMBO Journal, 2021).

B1: 15N-labeled UBE2S UBC E139R/E143R (residues 1-156) (domain or fragment)
chain: MNSNVENLPPHIIRLVYKEVTTLTADPPDGIKVFPNEEDLTDLQVTIEGPEGTPYAGGLFRMKLLLGKDFPASPPKGYFLTKIFHPNVGANGEICVNVLKRDWTAELGIRHVLLTIKCLLIHPNPESALNEEAGRLLLRNYERYAARARLLTEIHG
B2: 15N-labeled UBE2S UBC E143R (residues 1-156) (domain or fragment)
chain: MNSNVENLPPHIIRLVYKEVTTLTADPPDGIKVFPNEEDLTDLQVTIEGPEGTPYAGGLFRMKLLLGKDFPASPPKGYFLTKIFHPNVGANGEICVNVLKRDWTAELGIRHVLLTIKCLLIHPNPESALNEEAGRLLLENYERYAARARLLTEIHG
B3: 15N-labeled UBE2S UBC E139R (residues 1-156) (domain or fragment)
chain: MNSNVENLPPHIIRLVYKEVTTLTADPPDGIKVFPNEEDLTDLQVTIEGPEGTPYAGGLFRMKLLLGKDFPASPPKGYFLTKIFHPNVGANGEICVNVLKRDWTAELGIRHVLLTIKCLLIHPNPESALNEEAGRLLLRNYEEYAARARLLTEIHG
B4: GST-UBE2R2 wild-type (enzyme)
chain: MAQQQMTSSQKALMLELKSLQEEPVEGFRITLVDESDLYNWEVAIFGPPNTLYEGGYFKAHIKFPIDYPYSPPTFRFLTKMWHPNIYENGDVCISILHPPVDDPQSGELPSERWNPTQNVRTILLSVISLLNEPNTFSPANVDASVMFRKWRDSKGKDKEYAEIIRKQVSATKAEAEKDGVKVPTTLAEYCIKTKVPSNDNSSDLLYDDLYDDDIDDEDEEEEDADCYDDDDSGNEES
B5: GST-UBE2R2 R149E (enzyme)
chain: MAQQQMTSSQKALMLELKSLQEEPVEGFRITLVDESDLYNWEVAIFGPPNTLYEGGYFKAHIKFPIDYPYSPPTFRFLTKMWHPNIYENGDVCISILHPPVDDPQSGELPSERWNPTQNVRTILLSVISLLNEPNTFSPANVDASVMFEKWRDSKGKDKEYAEIIRKQVSATKAEAEKDGVKVPTTLAEYCIKTKVPSNDNSSDLLYDDLYDDDIDDEDEEEEDADCYDDDDSGNEES

Assays:
[1] = target: T1, ubiquitin (unlabeled, wild-type) (human, UniProt P0CG48 1-76); assay: NMR titration
[2] = target: T1, ubiquitin (unlabeled, wild-type); assay: BLI

Binder	binding result [1]	Kd [2] [µM]
B1	binds	–
B2	binds	–
B3	binds	–
B4	–	650
B5	–	> 4000
